Assay results: a protein production outcome set (Wang et al. 2014)

Experiment: label from the status in PepcDB records

Sequence | protein production
MMMIFAVLGIFDFLRGEDEGESLEKYLRKLEDLLEEEFDTLVRIAGFYAEEGDTREALDYLERAYRVASEMNDEELMAFALDSMGDVYLSDRKVKTAMEYFMEALRIYTSVNSPLRADLREKIKEVEKIREAMDIASINRLREESESGMPEVDLEVIEPLLNRLVDSVQSLTLYEAGSYEDSISQIMEAYQIARDIGDTSTEASLQLLLGLYSLKNEDFDESRRYLKKAEALFRKTNNELGLAVALVLLGTLDFIRNNADGVASSFRAAVEILQKLDEKELESVTLELLNTLYSF | failed
MNIAEQMKDVLKEEIKAAVLKAGLAEESQIPNVVLETPKDKTHGDYSTNMAMQLARVAKKAPRQIAEEIVAHFDKGKASIEKLDIAGPGFINFYMNNQYLTKLIPSVLEAGEAYG | failed
EEKPCGFPHVENGRIAQYYYTFKSFYFPMSIDKKLSFFCLAGYTTESGRQEEQTTCTTEGWSPEPRCFKKCTKPDLSNGYISDVK | failed
MDSSSLEQELRWMKLVWEEAPGDKTEGPLTSPGWSTLFQAVWWGAPSLVMQLLRQGSSVEERDHTGRTPLHLAVMRGHAPLVRLLLQRGALAGAADHTGRTPLHEAAWHGHSNVAELLLRRGASAAACSQTGLTPLHGAAALGRTLLVTSFTVASDSGSDVKDVRGWTAAHWAAACGQLAVLELLSAGGNADLDGALLVSAIAGSTSSLQLLLTLGAKVDTQDSTGATALGLAAGLGHHQMLFFLCCLKKKQERKTHCWDWPLANLDPLEEQKLQELSIPRNLASVPAGGWTPSPGYIFRTVDTFVHGQLMPTEERTTECSLAVSVDLISVRDCSPSPPAGFPPVSALTIHPRADGLAQRN | failed
MFRWFIAAIEDVYLPVPVMHLLTSNFAPFPWQHLDYTVVQLTKQDSNCLQALFERCTDFFNLTTGQPPASTAAEAEFVDVPAGKTPEDLHVFGLHHPQKGLIGTIIAVQDYPEAATWWIGTMLIDPVYRSQGVGSAFYQAFERWLAAQGVTGIELCAIASNTSGRAFWQRMGFEEIRQTPSRSFGQRHHIAHVYRRCLILLTRRAEFESYDPLNSLNAYLCKTEVINWQHPDIQALAQQLAAGHETPVVIAQACFEWVRDAIRHSVDYQMNPVTWRASDVLQHKTGYCFAKSHLLAALLRANQIPAGFCYQRLSIDDRGTPYSLHGFNAVYLPITGWHRVDPRGNKPGIDTKFSPPIEHLAYQPKLDEEADFSAILAEPLAIVVTALQTHATWDALLHHLPDMTPNTATTIGLYCY | failed
MSLTNGEENEEVLFCEKAKLLIFDSDTKGYTSRGVGELKLLRKKDDKGKVRVLCRSEGMGHVLLNTSVVKSFKYQPIDADNENLIKWPIITDGKLETFIIKVKQKADGRRLVGAVADAQQAMEGHHHHHH | not failed
METVFALCAIMLLAFNLLGIVLAGWRLTRRDAENDLVRQKPPVSLVVPLRGVENFTPLTLSRAFGLDWPDYELLFCVADEFDPVIAEVRKAAAAFPSVSMQLLIGDDRVSANPKLNNCVKGWRAAKYEWVILADSNVLMPKSYIATMMSAWRPDSGLVCSPPLGSRPVGFWANVECAFLNGSQGRWQYAAEAIGIGFAQGKSMLWNKPFLEDRGGIRALAAEIAEDAASTKLVRSAGRKVHLVSAPFEQPLGQRHAGEIWSRQTRWARLRRVTFPQYFAPEILTGALPPLLFALAATAMMDVNLAATASVVLALMFGPELALAALNGWPVSLYTLPAMIARDLIMPVVWARSWIGSAVAWRGNVMTIGTAESTLAGPPAE | failed
MSLRLKKLQKIVPYSPLKSLKIWHLFCVVRLCSIVVTSMTAGKTPTHFTTQPLNRVLGETSGAFADLGTFLPLVLGLIALNQFSPQGIFLGFGVFAILSALFYRRPMPVQPMKVIAALVIAQGLTPGMLQASAMLMGIILLILAFSGAITWLAKQLSQAVSVGIQLAIGLQLMWMGAKMMSDFWLLGLGAFALLFASKFLPLRYLAMPLVIAAGMIWQANSQTDMATSLSIPALSASLHLAWPTLNEWSSAAILLVLPQLALTLTNAVIATSVMAQEKFPEDAAKLTPKNLAISSGLANLLLAPFGAAAMCHGAGGLAVQYHFGARTHLAPLIFGGTCLVIALFWDSQMAWLLGLIPVAILGSLLSIGGLQLAWSKRLIDGKPFCIFVILSTAVTCLAINAAAGLAVGIILEQGRRTWAMLAMR | failed
ALLQTPEFVEEFILDRTMNPAVREFGYEELKMIDPTCGSGHFVLGAFRRLVRLGGENQPGKDVHQRVRAALDSVHGVDINPFAVAIARFRLLVAAMAASGVRTLDEASKYEWPVHLAVGDSLIKSGSQQGSLFGESDDDLTDELAEFKYATEDVGEHPEMLRPGRYHVVVGNPPYITVKDKSLNALYRELYPACAGKYALSVPFAQRFFELAKREDAEGSGYGMVGQITANSFMKREFGTKLIEGYFGHAVELTEVIDTSGAYIPGHGTPTVILVGTRRGGDGR | failed
